Measurements from publication PMC4609182.

Molecular target: T1, Parkin R0RBR module (RING0, RING1, IBR, RING2), wild type (rat), Q9JK66
T1 chain: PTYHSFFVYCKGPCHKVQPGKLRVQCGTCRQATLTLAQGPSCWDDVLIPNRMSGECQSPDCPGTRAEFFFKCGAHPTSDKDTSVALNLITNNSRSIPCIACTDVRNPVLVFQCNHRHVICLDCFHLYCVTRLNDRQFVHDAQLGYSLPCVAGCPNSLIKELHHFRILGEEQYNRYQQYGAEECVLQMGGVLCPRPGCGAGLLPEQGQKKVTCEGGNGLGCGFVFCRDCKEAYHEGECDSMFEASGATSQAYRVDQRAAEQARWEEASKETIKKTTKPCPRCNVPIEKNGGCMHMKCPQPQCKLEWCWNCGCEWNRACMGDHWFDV
Experiment: ITC; R0RBR (wild type or L266K) titrated with Ubl or pUbl; 20°C; 50 mM Tris–HCl pH 7.4, 150 mM NaCl, 1 mM TCEP; stoichiometry determined experimentally

Kd: 16 µM
B1: Parkin Ubl domain (ubiquitin-like domain), unmodified (domain or fragment)
chain: MIVFVRFNSSYGFPVEVDSDTSIFQLKEVVAKRQGVPADQLRVIFAGKELQNHLTVQNCDLEQQSIVHIVQRPQRK
modifications: not checked
